Source: US20170226155A1 (TRUSTEES OF TUFTS COLLEGE, published 2017)
Where no end group is shown, it is not given here. [ ]: non-standard residue; d: D form. The star is where a group is joined. boroPro = OB(O)[C@@H]1CCCN1*

Key:
[1] = target: Dipeptidyl amino peptidase type IV (DPP IV); assay: cell-based or functional assay
[2] = target: Dipeptidyl amino peptidase type IV (DPP IV); assay: cell-based or functional assay; remark: listed apart in the source

Binder | IC50, pH 2 (Tetrapeptide Prodrugs) [1] | IC50, pH 8 (Tetrapeptide Prodrugs) [1] | IC50 at ten minutes, pH 2 [2] | IC50 at ten minutes, pH 8 [2]
AAP[boroPro] [AlaAlaProboroPro] | 3 mM | 2 mM | 3 µM | –
YPF[boroPro] [TyrProPheboroPro] | – | – | 50 nM | 60 nM
